Consider 3 molecules from patent CN116640222A.

Assay [1] has as its target DNP-BSA (UniProt P02769). Description: BLI, antibody captured on AMC sensor, DNP-BSA in solution. A general note: BLI is a label-free optical method that tracks binding on a fibre tip over time.
Assay [2] concerns the target DNP-BSA (UniProt P02769). Description: indirect ELISA, DNP-BSA coated 3 ug/ml, antibody at 15.625 ng/ml.
Assay [3] deals with DNP-BSA (UniProt P02769). As to the kind of experiment: indirect ELISA, DNP-BSA coated 3 ug/ml, antibody at 31.25 ng/ml. (In general: In an ELISA, binding on a coated surface is turned into a signal by an enzyme label.)
For assay [4], the target named is DNP-BSA (UniProt P02769). As to the kind of experiment: indirect ELISA, DNP-BSA coated 3 ug/ml, antibody at 125 ng/ml.
The target in assay [5] is DNP-BSA (UniProt P02769). As to the kind of experiment: indirect ELISA, DNP-BSA coated 3 ug/ml, antibody at 7.813 ng/ml.
Assay [6] addresses DNP-BSA (UniProt P02769). As to the kind of experiment: indirect ELISA, DNP-BSA coated 3 ug/ml, antibody at 62.5 ng/ml.
Assay [7] addresses DNP-BSA (UniProt P02769). Description: indirect ELISA on DNP-BSA, antibody stored 21 days at 4 C, at 125 ng/ml.
In assay [8] the target is DNP-BSA (UniProt P02769). Description: indirect ELISA on DNP-BSA, antibody stored 21 days at -80 C, at 15.625 ng/ml.
Assay [9] addresses DNP-BSA (UniProt P02769). Description: indirect ELISA on DNP-BSA, antibody stored 21 days at -80 C, at 125 ng/ml.
Assay [10] has as its target DNP-BSA (UniProt P02769). As to the kind of experiment: indirect ELISA on DNP-BSA, antibody stored 21 days at 37 C, at 15.625 ng/ml.
In assay [11] the target is DNP-BSA (UniProt P02769). Description: indirect ELISA on DNP-BSA, antibody stored 21 days at 4 C, at 15.625 ng/ml.
Assay [12] deals with DNP-BSA (UniProt P02769). Description: indirect ELISA on DNP-BSA, antibody stored 21 days at 37 C, at 125 ng/ml.

Chain of UniProt P02769 (P02769 25-607 limits assumed, form in doubt): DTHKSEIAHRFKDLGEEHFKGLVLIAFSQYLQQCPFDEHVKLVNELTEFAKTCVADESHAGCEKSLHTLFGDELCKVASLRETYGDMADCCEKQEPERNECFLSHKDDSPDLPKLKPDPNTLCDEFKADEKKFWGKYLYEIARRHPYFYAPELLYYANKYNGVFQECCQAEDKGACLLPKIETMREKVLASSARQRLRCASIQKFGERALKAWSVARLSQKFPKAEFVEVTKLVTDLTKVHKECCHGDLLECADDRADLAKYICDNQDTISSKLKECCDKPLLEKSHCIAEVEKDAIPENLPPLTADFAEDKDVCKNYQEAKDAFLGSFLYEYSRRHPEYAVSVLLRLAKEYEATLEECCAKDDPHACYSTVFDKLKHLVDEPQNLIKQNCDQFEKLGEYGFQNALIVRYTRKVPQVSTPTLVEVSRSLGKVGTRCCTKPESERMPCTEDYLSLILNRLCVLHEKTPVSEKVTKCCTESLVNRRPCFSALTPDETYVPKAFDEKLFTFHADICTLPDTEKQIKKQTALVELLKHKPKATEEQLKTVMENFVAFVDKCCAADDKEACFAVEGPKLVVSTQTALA

By Kd is commonly meant the constant that tells how readily two partners part at equilibrium. The term koff denotes the first-order rate constant of dissociation. High values mean fast dissociation, low ones slow dissociation. Broadly, the kon is the second-order rate constant of association. A low value points to slow association. In the case of 对照 (antibody), the Kd with DNP-BSA [1] is 2.57 nM. In the assay with DNP-BSA [1], this molecule had a koff of 0.00055 s⁻¹. The molecule further returned a kon with DNP-BSA [1] of 214000 M⁻¹ s⁻¹. The OD (450 nm, ref 630 nm) was 0.375 OD with DNP-BSA [2]; 0.949 OD in the assay with DNP-BSA [3]; 2.37 OD in the assay with DNP-BSA [4]; 0.229 OD in the assay with DNP-BSA [5]; 1.53 OD with DNP-BSA [6].

B1: Anti-DNP-6G1mut2 (antibody, mouse IgG1, V domains shown)
VH: EVQLQESGPSLVKPSQTLSLTCSVTGDSIITGYWNWIRKFPGNKLEFMGYISYSGRTYYNPSLKSRVSITRDTSKNQYYLQLSSVTTEDAATYYCTRWTTAYFGIDSWGQGISVTVSS
VL: QAVVTQESALTTSPGGTVILTCRSSTGAVTTSNNANWVQEKPDHLFTGLIGGTSNRAPGVPVRFSGSLIGDKAALTITGAQTEDDAMYFCALWYSTHYVFGGGTKVTVLG
In the assay with DNP-BSA [1], B1 registered a Kd of 0.287 nM. Besides, in the assay with DNP-BSA [1], the dissociation rate constant (koff) stood at 0.00039 s⁻¹. Further, the kon with DNP-BSA [1] is 1.36e+06 M⁻¹ s⁻¹. Besides, the OD (450 nm, ref 630 nm) came out at 0.987 OD with DNP-BSA [2]; 1.61 OD with DNP-BSA [3]; 2.28 OD with DNP-BSA [4]; 0.516 OD in the assay with DNP-BSA [5]; 2.17 OD with DNP-BSA [6].

B2: Anti-DNP-6G1mut1 (antibody, mouse IgG1, V domains shown)
VH: EVQLQESGPSLVKPSQTLSLTCSVTGDSIITGYWNWIRKFPGNKLEFMGYISYSGRTYYNPSLKSRVSITRDTSKNQYYLQLSSVTTEDAATYYCTRWTTAYFGIDSWGQGISVTVSS
VL: QAVVTQESALTTSPGGTVILTCRSSTGAVTTSNNANWVQEKPDHLFTGLIGGTSNRAPGVPVRFSGSLIGDKAALTITGAQTEDDAMYFCAIWYSTHYVFGGGTKVTVLG
Turning to B2, the OD (450 nm, ref 630 nm) in the assay with DNP-BSA [7] is 2.21 OD; in the assay with DNP-BSA [8], 0.977 OD; with DNP-BSA [2] it was 0.96 OD; with DNP-BSA [9] it was 2.24 OD; with DNP-BSA [10], 0.985 OD; with DNP-BSA [11], 0.991 OD. The OD (450 nm, ref 630 nm) with DNP-BSA [3] was 1.69 OD; with DNP-BSA [4], 2.25 OD; with DNP-BSA [5], 0.504 OD; with DNP-BSA [12], 2.26 OD; with DNP-BSA [6] it was 1.95 OD. The dissociation constant Kd with DNP-BSA [1] is 0.168 nM. Further, the dissociation rate constant (koff) with DNP-BSA [1] was determined as 0.00042 s⁻¹. The molecule further yielded a kon with DNP-BSA [1] of 2.5e+06 M⁻¹ s⁻¹.
